From patent US20250129165A1 (IMCHECK THERAPEUTICS, published 2025)

Key:
[1] = target: T1, cynomolgus BTN3A as expressed on cynomolgus PBMCs (cynomolgus); assay: flow cytometry on cynomolgus PBMCs
T1 construct: whole, on cells; also called Cyno PBMC

[2] = target: human BTN3A1 antigen (Sino Biological cat. no. 15973-H08H) (human, UniProt O00481 30-254); assay: SPR, Biacore T200 multi-cycle kinetics; antibody captured on Protein A, BTN3A1 as analyte
Sequence of human BTN3A1 antigen (Sino Biological cat. no. 15973-H08H) (O00481 30-254 limits assumed): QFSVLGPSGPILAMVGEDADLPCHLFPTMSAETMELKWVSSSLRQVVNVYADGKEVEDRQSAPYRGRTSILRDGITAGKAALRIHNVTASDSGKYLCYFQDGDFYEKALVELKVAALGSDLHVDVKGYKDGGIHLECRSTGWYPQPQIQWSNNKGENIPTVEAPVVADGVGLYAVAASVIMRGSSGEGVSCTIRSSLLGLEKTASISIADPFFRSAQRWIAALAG

B1: mAb 3, humanized form of mAb 20.1 (antibody, human IgG1, kappa, V domains shown)
VH: QVQLVQSGAEVKKPGASVKVSCKASGYTFTRYYLYWVKQRPGQGLEWIGEINPNNGGTKFNEKFKSRATMTVDKSTRTTYMELSSLRSEDTAVYYCSREDDYDGTPDAMDYWGQGTLVTVSS
VL: DIQMTQSPSSLSASVGDRVTITCHASQNINLWLSWYQQKPGKAPKLLIYRASNLHTGVPSRFSGSGSATDFTFTISSLQPEDIATYYCQQGHSYPYTFGGGTKVDIKR
notes: also called 20.1 Humanized mAb 3; humanized mAb 20.1
- EC50 [1]: 5.74 µg/mL
- Kd [2]: 0.319 nM
